IC50, picomole as defined by the cell IL6 test, binding result and Kd data for two molecules are collected here from patent publication US20200031952A1 (CLOSED JOINT STOCK COMPANY BIOCAD, published 2020).

Some results are limits rather than exact numbers.

Assay [1] deals with T1, human IL-17A (human, UniProt Q16552 24-155, limits assumed).
T1 construct: Used as analyte in the Octet tests, as immobilised antigen in ELISA and as cytokine in the HT1080 cell test; also called human recombinant IL-17A; Interleukin 17
Briefly: cell-based or functional assay.

The next assay addresses T2, rat IL-17A (rat, UniProt Q61453 18-150, limits assumed).
T2 sequence (looked up): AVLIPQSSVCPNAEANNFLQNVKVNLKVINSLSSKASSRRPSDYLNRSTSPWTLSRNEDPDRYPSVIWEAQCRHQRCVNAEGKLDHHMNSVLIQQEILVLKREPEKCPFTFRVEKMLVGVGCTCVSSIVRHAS
Briefly: BLI (OctetRed 96), BCD109 immobilised on AR2G sensors, IL-17A as analyte.

The target in assay [2] is T1, human IL-17A. Briefly: BLI (OctetRed 96), BCD109 on AR2G sensors, 1:1 model; analyte 17,1 nM (heading: 'Human ... IL17 Fc'); Full R^2 0,775434.
Procedure: (§1) The test was conducted at a temperature of 30° C. and using PBS with 0.1% Tween-20 and 0.1% BSA as a working buffer.
(§2) Binding curves (after subtracting a reference signal) were analyzed using Octet Data Analysis software (Version 7.0) in accordance with the standard procedure and using 1:1 interaction model.
In assay [3] the target is T1, human IL-17A. The assay is described as follows: BLI (OctetRed 96), BCD109 on AR2G sensors, 1:1 model; analyte 34,3 nM (heading: 'Human ... IL17 Fc'); Full R^2 0,744563.
Procedure: as §1, §2
For assay [4], the target named is T1, human IL-17A. Briefly: BLI (OctetRed 96), BCD109 on AR2G sensors, 1:1 model; analyte 68,6 nM (heading: 'Human ... IL17 Fc'); Full R^2 0,383582.
Procedure: as §1, §2
In assay [5] the target is T3, monkey IL-17A (monkey).
T3 chain: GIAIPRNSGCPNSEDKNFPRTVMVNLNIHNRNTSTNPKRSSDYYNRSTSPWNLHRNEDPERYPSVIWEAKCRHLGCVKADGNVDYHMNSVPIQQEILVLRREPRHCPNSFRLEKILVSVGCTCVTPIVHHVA
The assay is described as follows: BLI (OctetRed 96), BCD109 on AR2G sensors, 1:1 model; analyte 17,2 nM (heading: 'Macaque ... IL17 Fc'); Full R^2 0,753773.
Procedure: as §1, §2

Assay [6] has as its target T3, monkey IL-17A. Briefly: BLI (OctetRed 96), BCD109 on AR2G sensors, 1:1 model; analyte 34,4 nM (heading: 'Macaque ... IL17 Fc'); Full R^2 0,061979.
Procedure: as §1, §2
Assay [7] has as its target T3, monkey IL-17A. The assay is described as follows: BLI (OctetRed 96), BCD109 on AR2G sensors, 1:1 model; analyte 68,7 nM (heading: 'Macaque ... IL17 Fc'); Full R^2 0,672159.
Procedure: as §1, §2

Procedure for rat IL-17A: as §1, §2

“AIN457 (anti-IL-17A antibody by Novartis)”: in the assay with human IL-17A [1], the IC50, picomole as defined by the cell IL6 test stood at 1100 picomole.

B1: BCD109 (antibody, V domains shown)
VH: QVQLVQSGGGLVQAGGSLRLSCAASGGTFATSPMGWLRQAPGKGTEFVAAISPSGGDRIYADSVKGRFTISRDNAGYFIYLQMNSLKPEDTAVYYCAVRRRFDGTSYYTGDYDSWGQGTLVTVSS
VL: EIVLTQSPGTLSLSPGERATLSCRASQSVSSSYLAWYQQKPGQAPRLLIYDASSRATGIPDRFSGSGSGTDFTLTISRLEPEDFAVYYCQQYSYSPVTFGQGTKVEIKR
notes: IgG1, transiently expressed; also called BCD109 antibody; BCD109 candidate; copies: 2 + 2
B1: the binding result in the assay with rat IL-17A is listed as “no binding (tested: 126 nM to 2 nM titrated)”. In addition, the Kd in the assay with human IL-17A [2] was 4.4 pM; with human IL-17A [3], less than 1 pM; with human IL-17A [4] it was less than 1 pM; with monkey IL-17A [5], less than 1 pM; with monkey IL-17A [6], less than 1 pM; with monkey IL-17A [7], less than 1 pM.

Broadly, the Kd is the constant that tells how readily two partners part at equilibrium.
